According to patent US9226899B2, “Particulate hyaluronic acid and flavonoid formulations for cellular delivery of bioactive agents” (AGENCY FOR SCIENCE, TECHNOLOGY AND RESEARCH, priority 2009, dated 2016):

Legend:
lysozyme [1] = target: T1, lysozyme (Gallus gallus, UniProt P00698); assay: Fluorescence quenching studies; assay type: binding, chicken
T1 construct: lysozyme from chicken egg white; purchased Sigma-Aldrich; host or cells: chicken egg white (natural source)
Description: The fluorescence emission spectra of the HA-EGCG/lysozyme particles, HA/lysozyme mixtures, free lysozyme alone, free HA-EGCG carrier or free HA alone were measured at an excitation wavelength of 280 nm using a fluorescence spectrophotometer (Hitachi, Japan). Difference spectra between the HA-EGCG/lysozyme particles and HA-EGCG were obtained to determine the net fluorescence of lysozyme in particles of varying HA-EGCG concentrations. The same was done for HA/lysozyme mixtures.

lysozyme [2] = target: T1, lysozyme; assay: Lysozyme activity assay (M. lysodeikticus turbidity); assay type: biochemical, chicken
Description: To determine the activity of lysozyme, 20 μl of sample containing either free lysozyme or HA-EGCG/lysozyme particles was added to a well of a 96-well assay plate, followed by 100 μl of M. lysodeikticus (0.15% (w/v) in PBS). The decrease in turbidity was monitored by a Tecan Infinite 200 microplate reader by measuring the absorbance of the sample at 450 nm at room temperature every 3 min for 15 min. The absorbance decay plot was fitted to a linear equation, and the slopes were used to determine iysozyme activity. Regarding the restoration of activity of lysozyme that is complexed with HA-EGCG, the following protocol was used: the HA-EGCG/lysozyme particles were first allowed to self-assemble for 10 min at room temperature, with free lysozyme diluted with PBS as a control. A constant volume of Triton-X of different concentrations was then added to each sample (to a final concentration of 0.001, 0.01 or 0.1% w/v), incubated at room temperature for a further 5 min before the lysozyme substrate, M. lysodeikticus, was added, and the absorbance monitored as described above.

HCT-116 cells = assay: Cell viability studies (AlamarBlue); assay type: cell-based, human; settings: delivered together with chloroquine; data not shown
Description: HCT-116 human colon carcinoma cells were obtained from ATCC, and cultured in McCoy's 5A medium supplemented with 10% FBS and 100 units/mL of penicillin/streptomycin.
HCT-116 cells were seeded at 10,000 cells per well in 96-well microplates with complete growth medium and left to attach for 48 h. Test reagents were prepared by first mixing the linear PEI (polyethylenimine) or chloroquine solution (fixed at 100 μM)) with Granzyme B (fixed at 2 μg/ml) for 15 min before adding HA-EGCG solution to the mixture and allow complexation to take place for 45 min. The medium in the wells was then aspirated and the cells were treated with the respective reagents for 48 h (all dilutions were made in serum-free medium). Cell viability was analyzed using AlamarBlue. Before analysis, the medium was aspirated and the cells were gently washed with PBS once before a mixture of 10 μl of alamarblue reagent with 100 μl of serum-containing medium was added to each well. The cells were incubated for 2 h and the fluorescence emission of each well was measured using a Tecan infinite Microplate Reader. The viabilities of treated cells were evaluated as a percentage of the negative control. Each data set is an average of 4 repeats.

T1 sequence (P00698 19-147): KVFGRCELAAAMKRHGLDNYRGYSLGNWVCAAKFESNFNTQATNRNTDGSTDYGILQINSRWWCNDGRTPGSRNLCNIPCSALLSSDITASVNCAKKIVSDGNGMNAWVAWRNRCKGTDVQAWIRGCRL

(−)-epigallocatechin gallate [EGCG]
quenching of intrinsic lysozyme fluorescence (lysozyme [1]; EX 280 nm, concentration-dependent (FIG. 5)): can quench the intrinsic fluorescence of lysozyme
quenching of intrinsic lysozyme fluorescence at the same EGCG concentration (lysozyme [1]; free EGCG vs HA-EGCG (FIG. 7)): quenches intrinsic lysozyme fluorescence to a smaller degree than HA-EGCG

free lysozyme: lysozyme from chicken egg white, model protein
apparent lysozyme activity (lysozyme [2]; 0.001% w/v Triton-X, % of original activity of free lysozyme (FIG. 9b)): 140%
maximum apparent lysozyme activity (plateau) (lysozyme [2]; 0.01% and 0.1% Triton-X (FIG. 9b)): about 160%

B1: Granzyme: protease secreted by cytotoxic T lymphocytes, activates caspase and induces apoptosis (protein, UniProt P04187 21-247, looked up)
Granzyme B(G,H): IIGGHEVKPHSRPYMALLSIKDQQPEAICGGFLIREDFVLTAAHCEGSIINVTLGAHNIKEQEKTQQVIPMVKCIPHPDYNPKTFSNDIMLLKLKSKAKRTRAVRPLNLPRRNVNVKPGDVCYVAGWGRMAPMGKYSNTLQEVELTVQKDRECESYFKNRYNKTNQICAGDPKTKRASFRGDSGGPLVCKKVAAGIVSYGYKDGSPPRAFTKVSSFLSWIKKTMKSS
cytotoxicity in HCT-116 cells (HCT-116 cells): induced cytotoxicity in HCT-116 cells
